Measurements: US20200317779A1
Positions count from the first letter of the chain named.

B1: C07 (antibody, human IgG1, lambda, L234A L235A, V domains shown)
VH: EVQLVESGGGLVQPGGSLKLSCAASGFTFNTYAMNWVRQASGKGLEWVGRIRSKYNNYATYYADSVKDRFTISRDDSQSTAYLQMNSLKTEDTAVYYCVRHGNFGNSYVSWFAYWGQGTLVTVSS
VL: QAVVTQEPSLTVSPGGTVTLTCRSSTGAVTTSNYANWFQQKPGQAPRGLIGGTNKRAPWTPARFSGSLLGGKAALTLSGAQPEDEAEYYCALWYSNLWVFGGGTKLTVLG
B2: C08 (antibody, human IgG1, lambda, L234A L235A, V domains shown)
VH: B1 VH
VL: B1 VL with G71D
B3: C15 (antibody, human IgG1, lambda, L234A L235A, V domains shown)
VH: B1 VH
VL: B1 VL with F38V
B4: C16 (antibody, human IgG1, lambda, L234A L235A, V domains shown)
VH: B1 VH
VL: B1 VL with F38V, G71D
B5: D07 (antibody, human IgG1, lambda, L234A L235A, V domains shown)
VH: B1 VH with A81L
VL: B1 VL
B6: D08 (antibody, human IgG1, lambda, L234A L235A, V domains shown)
VH: B1 VH with A81L
VL: B1 VL with G71D
B7: D15 (antibody, human IgG1, lambda, L234A L235A, V domains shown)
VH: B1 VH with A81L
VL: B1 VL with F38V
B8: D16 (antibody, human IgG1, lambda, L234A L235A, V domains shown)
VH: B1 VH with A81L
VL: B1 VL with F38V, G71D
B9: A07 (antibody, human IgG1, lambda, L234A L235A, V domains shown)
VH: B1 VH with Q78K, S79N
VL: B1 VL
B10: A08 (antibody, human IgG1, lambda, L234A L235A, V domains shown)
VH: B1 VH with Q78K, S79N
VL: B1 VL with G71D
B11: E15 (antibody, human IgG1, lambda, L234A L235A, V domains shown)
VH: B1 VH with G49A, Q78K, S79N
VL: B1 VL with F38V
B12: E16 (antibody, human IgG1, lambda, L234A L235A, V domains shown)
VH: B1 VH with G49A, Q78K, S79N
VL: B1 VL with F38V, G71D
B13: F15 (antibody, human IgG1, lambda, L234A L235A, V domains shown)
VH: B1 VH with G49A, Q78K, S79N, A81L
VL: B1 VL with F38V
B14: F16 (antibody, human IgG1, lambda, L234A L235A, V domains shown)
VH: B1 VH with G49A, Q78K, S79N, A81L
VL: B1 VL with F38V, G71D
B15: G15 (antibody, human IgG1, lambda, L234A L235A, V domains shown)
VH: B1 VH with G49A
VL: B1 VL with F38V
B16: G16 (antibody, human IgG1, lambda, L234A L235A, V domains shown)
VH: B1 VH with G49A
VL: B1 VL with F38V, G71D
B17: H15 (antibody, human IgG1, lambda, L234A L235A, V domains shown)
VH: B1 VH with G49A, A81L
VL: B1 VL with F38V
B18: H16 (antibody, human IgG1, lambda, L234A L235A, V domains shown)
VH: B1 VH with G49A, A81L
VL: B1 VL with F38V, G71D
B19: A15 (antibody, human IgG1, lambda, L234A L235A, V domains shown)
VH: B1 VH with Q78K, S79N
VL: B1 VL with F38V
B20: B07 (antibody, human IgG1, lambda, L234A L235A, V domains shown)
VH: B1 VH with Q78K, S79N, A81L
VL: B1 VL
B21: B08 (antibody, human IgG1, lambda, L234A L235A, V domains shown)
VH: B1 VH with Q78K, S79N, A81L
VL: B1 VL with G71D
B22: A16 (antibody, human IgG1, lambda, L234A L235A, V domains shown)
VH: B1 VH with Q78K, S79N
VL: B1 VL with F38V, G71D
B23: B14 (antibody, human IgG1, lambda, L234A L235A, V domains shown)
VH: B1 VH with Q78K, S79N, A81L
VL: B1 VL with F38V, G51Y, G71D
B24: C01 (antibody, human IgG1, lambda, L234A L235A, V domains shown)
VH: B1 VH
VL: B1 VL with G48T, G51Y
B25: Mouse human chimeric SP34 IgG1 antibody (antibody, V domains shown)
VH: B1 VH with G15K, S41P, G49A, T80I, A81L, S87N, V95M
VL: QAVVTQESALTTSPGETVTLTCRSSTGAVTTSNYANWVQEKPDHLFTGLIGGTNKRAPGVPARFSGSLIGDKAALTITGAQTEDEAIYFCALWYSNLWVFGGGTKLTVLG

target: recombinant cynomolgus monkey CD3ε/δ heterodimer (cynomolgus monkey) (UniProt Q95LI5); experiment: ELISA, coated CD3ε/δ
Sequence (Q95LI5 22-117, stated change not applied, chain 1 of 2): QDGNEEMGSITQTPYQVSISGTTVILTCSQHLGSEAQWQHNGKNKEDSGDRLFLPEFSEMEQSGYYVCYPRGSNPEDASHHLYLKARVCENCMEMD
Sequence (Q95LI8 22-105, stated change not applied, chain 2 of 2, further chain): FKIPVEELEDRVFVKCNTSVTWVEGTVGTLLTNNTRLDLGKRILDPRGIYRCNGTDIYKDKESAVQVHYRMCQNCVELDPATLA

Binder | Absorbance (450 nm)
B1 | 2.6
B2 | 2.18
B3 | 2.81
B4 | 2.8
B5 | 2.39
B6 | 2.53
B7 | 3.01
B8 | 2.87
B9 | 2.55
B10 | 2.34
B11 | 2.7
B12 | 2.74
B13 | 2.75
B14 | 2.85
B15 | 2.69
B16 | 2.77
B17 | 2.84
B18 | 2.87
B19 | 2.86
B20 | 2.45
B21 | 2.19
B22 | 2.8
B23 | 0.102
B24 | 0.075

target: recombinant human CD3ε/δ heterodimer (human) (UniProt P07766); experiment: ELISA, coated CD3ε/δ
Sequence (P07766 23-126, stated change not applied, chain 1 of 2): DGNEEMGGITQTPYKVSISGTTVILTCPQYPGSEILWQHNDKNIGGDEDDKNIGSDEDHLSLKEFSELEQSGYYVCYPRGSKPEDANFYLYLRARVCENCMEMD
Sequence (P04234 22-105, stated change not applied, chain 2 of 2, further chain): as the sequence (Q95LI8 22-105, stated change not applied, chain 2 of 2, further chain) above, with V5I, K15N, V20I, T32S, N33D, N34I, A64T, N74S, L83V counted along it

Binder | Absorbance (450 nm)
B1 | 0.96
B2 | 0.446
B3 | 2.45
B4 | 2.37
B5 | 1.17
B6 | 0.897
B7 | 2.53
B8 | 2.65
B9 | 1.31
B10 | 0.875
B11 | 2.41
B12 | 2.4
B13 | 2.49
B14 | 2.46
B15 | 2.42
B16 | 2.48
B17 | 2.44
B18 | 2.46
B19 | 2.79
B20 | 0.718
B21 | 0.424
B22 | 2.54
B23 | 0.127
B24 | 0.131

target: recombinant cynomolgus monkey CD3ε/δ heterodimer (cynomolgus monkey) (UniProt Q95LI5); experiment: BLI (Octet), antigen on anti-Penta His sensor, antibody 50 nM

Binder | Kd | koff | kon
B1 | 27.5 nM | 0.00535 s⁻¹ | 194000 M⁻¹ s⁻¹
B2 | 35.6 nM | 0.00589 s⁻¹ | 166000 M⁻¹ s⁻¹
B3 | 0.653 nM | 0.000343 s⁻¹ | 525000 M⁻¹ s⁻¹
B4 | 0.888 nM | 0.000341 s⁻¹ | 384000 M⁻¹ s⁻¹
B5 | 20 nM | 0.00284 s⁻¹ | 143000 M⁻¹ s⁻¹
B6 | 21.6 nM | 0.00266 s⁻¹ | 123000 M⁻¹ s⁻¹
B7 | 0.533 nM | 0.000233 s⁻¹ | 437000 M⁻¹ s⁻¹
B8 | 0.611 nM | 0.000217 s⁻¹ | 356000 M⁻¹ s⁻¹
B9 | 20.5 nM | 0.00315 s⁻¹ | 153000 M⁻¹ s⁻¹
B10 | 21.9 nM | 0.00321 s⁻¹ | 147000 M⁻¹ s⁻¹
B11 | 1.86 nM | 0.00054 s⁻¹ | 290000 M⁻¹ s⁻¹
B12 | 2.19 nM | 0.000482 s⁻¹ | 220000 M⁻¹ s⁻¹
B13 | 1.33 nM | 0.000297 s⁻¹ | 224000 M⁻¹ s⁻¹
B14 | 1.37 nM | 0.000253 s⁻¹ | 185000 M⁻¹ s⁻¹
B15 | 1.72 nM | 0.000461 s⁻¹ | 269000 M⁻¹ s⁻¹
B16 | 1.75 nM | 0.00034 s⁻¹ | 195000 M⁻¹ s⁻¹
B17 | 1.17 nM | 0.000269 s⁻¹ | 230000 M⁻¹ s⁻¹
B18 | 1.13 nM | 0.000206 s⁻¹ | 182000 M⁻¹ s⁻¹
B25 | 0.14 nM | 5.3e-05 s⁻¹ | 378000 M⁻¹ s⁻¹
B19 | 0.364 nM | 0.000165 s⁻¹ | 453000 M⁻¹ s⁻¹
B20 | 30.9 nM | 0.00642 s⁻¹ | 208000 M⁻¹ s⁻¹
B21 | 26.3 nM | 0.00525 s⁻¹ | 199000 M⁻¹ s⁻¹
B22 | 0.657 nM | 0.000243 s⁻¹ | 370000 M⁻¹ s⁻¹

target: recombinant human CD3ε/δ heterodimer (human) (UniProt P07766); experiment: as above

Binder | Kd | koff | kon
B1 | 23 nM | 0.00349 s⁻¹ | 152000 M⁻¹ s⁻¹
B2 | 29.4 nM | 0.00317 s⁻¹ | 108000 M⁻¹ s⁻¹
B3 | 0.43 nM | 0.000162 s⁻¹ | 376000 M⁻¹ s⁻¹
B4 | 0.419 nM | 0.000112 s⁻¹ | 268000 M⁻¹ s⁻¹
B5 | 19 nM | 0.00214 s⁻¹ | 113000 M⁻¹ s⁻¹
B6 | 35 nM | 0.00287 s⁻¹ | 82000 M⁻¹ s⁻¹
B7 | 0.294 nM | 9.6e-05 s⁻¹ | 327000 M⁻¹ s⁻¹
B8 | 0.446 nM | 0.000107 s⁻¹ | 240000 M⁻¹ s⁻¹
B9 | 19.5 nM | 0.00232 s⁻¹ | 119000 M⁻¹ s⁻¹
B10 | 22.2 nM | 0.00226 s⁻¹ | 102000 M⁻¹ s⁻¹
B11 | 1.74 nM | 0.000392 s⁻¹ | 225000 M⁻¹ s⁻¹
B12 | 1.76 nM | 0.000284 s⁻¹ | 162000 M⁻¹ s⁻¹
B13 | 1.04 nM | 0.000206 s⁻¹ | 197000 M⁻¹ s⁻¹
B14 | 0.852 nM | 0.00012 s⁻¹ | 141000 M⁻¹ s⁻¹
B15 | 1.59 nM | 0.000332 s⁻¹ | 209000 M⁻¹ s⁻¹
B16 | 1.32 nM | 0.000201 s⁻¹ | 153000 M⁻¹ s⁻¹
B17 | 0.953 nM | 0.000189 s⁻¹ | 199000 M⁻¹ s⁻¹
B18 | 0.881 nM | 0.00012 s⁻¹ | 136000 M⁻¹ s⁻¹
B25 | 0.229 nM | 6.01e-05 s⁻¹ | 262000 M⁻¹ s⁻¹
B19 | 0.296 nM | 9.58e-05 s⁻¹ | 323000 M⁻¹ s⁻¹
B20 | 21.4 nM | 0.00423 s⁻¹ | 198000 M⁻¹ s⁻¹
B21 | 27.6 nM | 0.00407 s⁻¹ | 148000 M⁻¹ s⁻¹
B22 | 0.293 nM | 8.07e-05 s⁻¹ | 275000 M⁻¹ s⁻¹
